Experimental data: PMC4023160, “Head-to-tail interactions of the coiled-coil domains regulate ClpB activity and cooperation with Hsp70 in protein disaggregation” (eLife, 2014)

Columns and labels:
[1] = molecular target: the molecule itself; assay: FRET or BRET; Trp (Q427W, donor) to IAEDANS (Q502C, acceptor) between adjacent subunits; low salt buffer A (50 mM Tris pH 7.5, 5 mM MgCl2, 20 mM KCl, 2 mM DTT) without or with 2 mM ATP, 25°C, excitation 290 nm
[2] = molecular target: the molecule itself; assay: cross-linking; disulfide cross-linking: 4 μM ClpB cysteine variant, 25 μM Cu-Phenanthroline, 1 min at room temperature; non-reducing SDS gradient gel (3-8%)
[3] = molecular target: the molecule itself; assay: negative-stain EM single-particle reconstruction; BAP(HAP)-ClpP complexes formed in 20 mM Tris-HCl pH 7.5, 20 mM KCl, 15 mM MgCl2, 1 mM DTT, 2 mM ATPγS; stained with 2% uranyl acetate; side views of 2:2 complexes cut into 1:1 halves; sixfold symmetry imposed or none
[4] = molecular target: the molecule itself; assay: crystal structure; SeMet protein with ATP (ADP bound), space group P65, one molecule in the asymmetric unit, 3.50 Å

B1: ClpB-Q427W-Q502C-IAEDANS (W462Y/W543L) with E432A (natural protein)
chain: not shown
modifications: IAEDANS on the cysteine at 502 (Q502C), labelled with efficiencies of 70-80%
notes: ClpB of E. coli; also called E432A (FRET pair); source: purified (Ni-IDA, size exclusion chromatography Superdex S200); labelled with 1,5-IAEDANS
binding result [1]: binds

B2: ClpB-K431C-S499C hyperactive (Y503D) variant (natural protein)
chain: not shown
notes: ClpB of E. coli; source: purified (Ni-IDA, size exclusion chromatography Superdex S200); dialyzed to remove DTT
binding result [2]: binds

B3: ClpP protease (enzyme)
chain: not shown
notes: ClpP protease; source: purified as described previously (Oguchi et al., 2012); copies: 14
stoichiometry N [3]: 14

B4: ClpB-K431C-S499C repressed (E432A) variant (natural protein)
chain: not shown
notes: as for B2
binding result [2]: binds

B5: ND truncation of E. coli ClpB (residues 159 to 858; E279A/E432A/E678A), SeMet (domain or fragment)
chain: not shown
modifications: selenomethionine (SeMet)
notes: ClpB of E. coli, residues 159 to 858, without the N-terminal domain; One molecule in the asymmetric unit (P65); monomers form a spiral assembly in the crystal; also called ClpB E279A/E432A/E678A (SeMet) + ATP; E. coli ClpB-E432A (crystal structure); source: purified (Ni-IDA, size exclusion chromatography Superdex S200)
binding result [4]: binds

B6: ClpB-Q427W-Q502C-IAEDANS in the tryptophan-free ClpB-W462Y/W543L variant (natural protein)
chain: not shown
modifications: IAEDANS on the cysteine at 502 (Q502C), labelled with efficiencies of 70-80%
notes: ClpB of E. coli; also called wild type ClpB (FRET pair); source: purified (Ni-IDA, size exclusion chromatography Superdex S200); labelled with 1,5-IAEDANS
binding result [1]: binds
